For the assay, the target named is human FAS polypeptide (human) (UniProt P25445). Nature of the assay: cell-based or functional assay.
Sequence of UniProt P25445 (P25445 26-335 limits assumed): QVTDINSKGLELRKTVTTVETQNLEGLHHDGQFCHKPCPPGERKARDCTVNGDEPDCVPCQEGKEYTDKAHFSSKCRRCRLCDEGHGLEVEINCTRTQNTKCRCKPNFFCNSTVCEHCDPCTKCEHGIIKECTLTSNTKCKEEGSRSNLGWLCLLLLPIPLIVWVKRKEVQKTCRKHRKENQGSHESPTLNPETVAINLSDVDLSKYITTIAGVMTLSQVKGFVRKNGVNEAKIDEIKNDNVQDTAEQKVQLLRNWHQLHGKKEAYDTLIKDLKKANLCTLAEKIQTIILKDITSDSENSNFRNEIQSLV

In the case of HFE7A IgG (antibody), the apoptosis (DNA fragmentation), U87-MG cells, 24 hours, cross-linked antibody (fold of cross-linked ApomAb) amounted to 2.
